Measured values from IntAct's records for PubMed 16799563.

B1: Mediator of RNA polymerase II transcription subunit 15 (Homo sapiens), Q96RN5 (parent)
chain: MDVSGQETDWRSTAFRQKLVSQIEDAMRKAGVAHSKSSKDMESHVFLKAKTRDEYLSLVARLIIHFRDIHNKKSQASVSDPMNALQSLTGGPAAGAAGIGMPPRGPGQSLGGMGSLGAMGQPMSLSGQPPPGTSGMAPHSMAVVSTATPQTQLQLQQVALQQQQQQQQFQQQQQAALQQQQQQQQQQQFQAQQSAMQQQFQAVVQQQQQLQQQQQQQQHLIKLHHQNQQQIQQQQQQLQRIAQLQLQQQQQQQQQQQQQQQQALQAQPPIQQPPMQQPQPPPSQALPQQLQQMHHTQHHQPPPQPQQPPVAQNQPSQLPPQSQTQPLVSQAQALPGQMLYTQPPLKFVRAPMVVQQPPVQPQVQQQQTAVQTAQAAQMVAPGVQMITEALAQGGMHIRARFPPTTAVSAIPSSSIPLGRQPMAQVSQSSLPMLSSPSPGQQVQTPQSMPPPPQPSPQPGQPSSQPNSNVSSGPAPSPSSFLPSPSPQPSQSPVTARTPQNFSVPSPGPLNTPVNPSSVMSPAGSSQAEEQQYLDKLKQLSKYIEPLRRMINKIDKNEDRKKDLSKMKSLLDILTDPSKRCPLKTLQKCEIALEKLKNDMAVPTPPPPPVPPTKQQYLCQPLLDAVLANIRSPVFNHSLYRTFVPAMTAIHGPPITAPVVCTRKRRLEDDERQSIPSVLQGEVARLDPKFLVNLDPSHCSNNGTVHLICKLDDKDLPSVPPLELSVPADYPAQSPLWIDRQWQYDANPFLQSVHRCMTSRLLQLPDKHSVTALLNTWAQSVHQACLSAA
partner: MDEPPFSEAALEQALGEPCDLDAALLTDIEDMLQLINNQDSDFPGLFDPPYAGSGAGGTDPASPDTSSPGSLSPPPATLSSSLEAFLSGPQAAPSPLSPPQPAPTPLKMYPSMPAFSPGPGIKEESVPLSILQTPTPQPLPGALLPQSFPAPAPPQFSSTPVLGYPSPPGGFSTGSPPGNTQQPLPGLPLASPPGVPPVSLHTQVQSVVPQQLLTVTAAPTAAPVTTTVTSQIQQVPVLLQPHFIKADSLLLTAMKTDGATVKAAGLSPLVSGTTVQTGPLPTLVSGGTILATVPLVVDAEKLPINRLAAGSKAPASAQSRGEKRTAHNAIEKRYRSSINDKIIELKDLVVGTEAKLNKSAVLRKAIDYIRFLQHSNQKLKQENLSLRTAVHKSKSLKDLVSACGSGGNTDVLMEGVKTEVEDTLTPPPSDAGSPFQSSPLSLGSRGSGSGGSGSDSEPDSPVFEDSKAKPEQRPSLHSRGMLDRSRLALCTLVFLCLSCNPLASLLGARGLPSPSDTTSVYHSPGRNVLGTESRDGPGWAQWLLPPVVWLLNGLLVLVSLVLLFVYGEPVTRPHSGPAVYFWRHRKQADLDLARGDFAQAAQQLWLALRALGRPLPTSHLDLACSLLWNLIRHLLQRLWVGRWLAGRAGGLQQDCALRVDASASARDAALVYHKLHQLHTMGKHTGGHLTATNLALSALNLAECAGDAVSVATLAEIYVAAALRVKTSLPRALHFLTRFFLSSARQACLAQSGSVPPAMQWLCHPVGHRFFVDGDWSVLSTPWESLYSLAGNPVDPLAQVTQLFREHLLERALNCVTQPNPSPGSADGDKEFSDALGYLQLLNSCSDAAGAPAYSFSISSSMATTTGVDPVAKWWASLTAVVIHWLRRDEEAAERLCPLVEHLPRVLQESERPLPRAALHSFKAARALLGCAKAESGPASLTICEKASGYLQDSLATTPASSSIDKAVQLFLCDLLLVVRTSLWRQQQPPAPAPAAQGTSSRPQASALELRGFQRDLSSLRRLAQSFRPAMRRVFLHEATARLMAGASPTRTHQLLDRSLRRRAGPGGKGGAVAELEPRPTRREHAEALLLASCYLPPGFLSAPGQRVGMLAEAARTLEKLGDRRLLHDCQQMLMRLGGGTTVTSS

Variants of: B1
Conditions: with SREBF1, P36956-1

Effect of a mutation on the interaction, disrupting interaction strength:
E42A
L58D
A60D
